Data reported in the RNAGym collection of RNA variant scans (doi:10.1073/pnas.2313332121).

B1: TPR t1 (parent)
chain: GACCAAUCUGCCCUCAGAGCUCGAGAACAUCUUCGGAUGCAGAGGAGGCAGGCUUCGGUGGCGCGAUAGCGCCAACGUCCUCAACCUCCAAUGCAUCCCACCACAUGAUGAUGCCUGAAGAGCCUUGGUUUUUUG

Variants of: B1
Experiment: polymerase ribozyme fitness, log enrichment relative to wild type (log ratio); higher = more active; in vitro selection for triplet polymerase activity
Procedure, shortened: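 Genotype fitness is the logarithm of its enrichment divided by wild-type enrichment, using inverse-variance-weighted averages of replicates. That logarithm is base 2. Enrichment was measured by Illumina sequencing of input and output libraries from one triplicate in vitro selection round, with frozen incubation at −7 °C, on PCR-built, transcribed mutant libraries of each subunit of a heterodimeric triplet polymerase ribozyme, retaining genotypes with ≥10 input reads and ≥1 read per output.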

Variant	polymerase ribozyme fitness (log ratio)
GACCAAUCUGCCCUCAGAGCUCGAGAACUUCUUCGGAUGCAGAGGAGGCAGGCUUCGGUGGCGCGAUAGCGCCAACGCCCUCAACCUCCAAUGCAUCCCACCACAUGAUGAUGCCUGAAGAGCCUUGGUUUUUUG [A29U U78C]	-1.79
GACCAAUCUGCCCUCAGAGCUCGAGAACAGCUUCGGAUGCAGAGGAGGGAGGCUUCGGUGGCGCGAUAGCGCCAACGUCCUCAACCUCCAAUGCAUCCCACCACAUGAUGAUCCCUGAAGAGCCUUGGUUUUUUG [U30G C49G G113C]	-5.95
GACCAAUCUGCCCUCAGAGCUCGAGAACACCUUCGGAUGUAGAGGAGGCAGGCUGCGGUGGCGCGAUAGCGCCAACGUCCUCAACCUCCAAUGCAUCCCACCACAUGAUGAUGCCUGAAGAGCCUUGGUUUUUUG [U30C C40U U55G]	-4.05
GACCAAUCUGCCCUCAGAGCUCGAGAACACCUUCGGAUGCAGAGGAGCCAGGCUUCGGUGGCGUGAUAGCGCCAACGUCCACAACCACCAAUGCAUCCCACCACAUGAUGAUGCCUGAAGAGCAUUGGUUUUUUG [U30C G48C C64U U81A U87A C124A]	-4.9
GACCAAUCUGCCCUCAGAGCUCGAGAACAUAUUCGGAUGCAGAGGAGGCAGGCUUCGGUGGCGCGAUAGCGCCAACGUCCUCAACCUCCAAUGCAUCCCACCACAUGAUGAUGCCUGAAGAGCCUUGGUUUUUUG [C31A]	-5.84
GACCAAUCUGCCCUCAGAGCUCGAGAACACCUUCGGAUGCAUAGGAGGCAGGCUUCGGUAGCGCGAUAGCGCCAACGUCCUCAACCUCCAAUGCAUCCCACCACAUGAUGAUGCCUGAAGAGCCUUGGUUUUUUG [U30C G42U G60A]	-5.14
GACCAAUCUGCCCUCAGAGCUCGAGAACACCUUCGGAUGCAGAGGAGGCAGGCUUCGGUGGCGCGAUAGCGCCAACGUCCUCAACCUCCAAUGCAUUCCACCACAUGAUGAUGCCUGAAGAGCCUUGGUUUUUUG [U30C C97U]	-3.64
GACCAAUCUGCCCUCAGAGCUCGAGAACACCUUCGGAUGCAGAGGAGGCAGGCUUCGGUGGCACGAUAGCGCCAACGUCCUCAACCUCCAAUGCAUCCCACCACAUGAUGAUGCCUGAAGAGCCUUGGUUUUUUG [U30C G63A]	-2.6
GACCAAUCUGCCCUCAGAGCUCGAGAACAGCUUCGGAUGCAGUGGAGGCAGGCUUCGGUGGCGCGAUAGCGCCAACGUCCUCAACCUCCAUUGCAUCCCACCACAUGAUGAUUCCUGAAGAGCCUUGGUUUUUUG [U30G A43U A91U G113U]	-6.55
GACCAAUCUGCCCUCAGAGCUCGAGAACACCUUCGGAUGCAGAGGAUGCAGGUAUCGGUGGCGCGAUAGCGCCAACGUCCUCAACCUCCAAUGCAUCCCACCACAUGAUGAUGCCUGAAGAGCCUUGGUUUUAUG [U30C G47U C53U U54A U133A]	-4.89
GACCAAUCUGCCCUCAGAGCUCGAGAACUGCUUCGGAUGCAGAGGAGGCAGGCUUCUGUGGCCCGAUAGCGUCAACGUCCUCAACCUCCAAUGCAUCCCACCACAUGAUGAUGCCUGAAAAGCCUUGGUUUUUUG [A29U U30G G57U G63C C72U G120A]	-7.09
GACCAAUCUGCCCUCAGAGCUCGAGAACACCUUCGGAUGCAGAGGAGUCAGGCUUCGGUGGCGCGAUAGCGCAAACGUCCUAAACCUCCAAUGCAUCCCACCACAUGAUGAUGCCUGAAGAGCCUUGGUUUUUUG [U30C G48U C73A C82A]	-3.73
GACCAAUCUGCCCUCAGAGCUCGAGAACACCUUCGGAUGCAGAGGAGGCAGGCUUCGGUGGCGCGAUAGCGACAACGUCCUCAACCUCCAAUGCAUCCCACCACAUGAUGAUGCCUGAAGAGCCUUGGUUUUUUG [U30C C72A]	-2.24
GACCAAUCUGCCCUCAGAGCUCGAGAACAACUUCGGAUGCAGAGGAGGCAGGCUUAGGUGGCGCGAUAGUGCCAACGUCCUCAACCUCCAAUGCAUCCCACCACAUGAUGAUGCCUGAAGAGCCUUGGUUUUUUG [U30A C56A C70U]	-7.2
GACCAAUCUGCCCUCAGAGCUCGAGAACUUCUUCGGAUGCAGAGGAGGCAGGCUUCGGGGGCGCGAUAGCGCCAACGUCCUCAACCUCCAAUGCAUCCCACCACAUGAUGAUGCCUGAACAGCCUUGGUUUUUUG [A29U U59G G120C]	-1.14
GACCAAUCUGCCCUCAGAGCUCGAGAACACCUUCGGAUGCAGAGGAGGCAGGCUUCGGUGGCGCGAUAGCGCCAACGUCCUCAACCUUCAAUGCAUCCCACCACAUGAUGAUGCCUGAAGAGCCUUGGUUUUUUG [U30C C88U]	-2.37
GACCAAUCUGCCCUCAGAGCUCGAGAACAGCCUCGGAUGCAGAGGAGGCAGGCUUCGGUGGCGCGAUAGCGCCAACGUCCUCAACCUCCAAUGCAUCCCACCACAUGAUGAUGCCUGAAGAGCCUUGGUUUUUUG [U30G U32C]	-6.32
GACCAAUCUGCCCUCAGAGCUCGAGAACACCUUCGGAUGCAGAGGAGGCAGGCUUCGGUGGCGCGAUAGCGCCAACGUCCUCAACCUCCAAUGCAUCCCAUCACAUGAUGCUGCCUGAAGAGCCUUGGUUUUUUG [U30C C101U A111C]	-3.68
GACCAAUCUGCCCUCAGAGCUCGAGAACUUCUUCGGAUGCAGAGGAGGCAGGCUUCGGUGGCGCGAUAGCGCCAACGUCCUCAACCUCCAAUGCACCCCACCACAUGAUGAUGCCUGAAGAGCCUUGGUUUUUUG [A29U U96C]	-1.87
GACCAAUCUGCCCUCAGAGCUCGAGAACUUCUUCGGAUGCAGAGGAGGCAGGCUUCGGUGGCGCGAUAGCGCCAACGUCCUCAACCUCCAAUGCAUCCCACCACAUGAUGAGGCCUGAAGAGCCUUGGUUUUCUG [A29U U112G U133C]	-1.1
GACCAAUCUGCCCUCAGAGCUCGAGAACAGCUUCGGAUGCAGAGGAGGCAGGCUUCGGUGGCGCGAUAGCGCCAACGUCCUCAACCUCCAAUGCAUCCCACGACAUGAUGAGGCCUGAAGAGCCUUGGUUUUUUG [U30G C102G U112G]	-7.15
